Reference: patent US20140120109A1 (Regeneron, published 2014)
Positions count from the first letter of the chain named. Numbers in names are those of the source. Blank lines part the entries; values can stand above or below the binder they belong to.

Key:
[1] = target: T1, rat TL1A, soluble, CHO-expressed, residues 76-252 of SEQ ID NO:258 with N-terminal His6-tag (rat, UniProt Q8K3Y7 76-252); assay: SPR 25C, mAb captured
T1 construct: also called rTL1A; rTL1A (CHO)
T1 sequence: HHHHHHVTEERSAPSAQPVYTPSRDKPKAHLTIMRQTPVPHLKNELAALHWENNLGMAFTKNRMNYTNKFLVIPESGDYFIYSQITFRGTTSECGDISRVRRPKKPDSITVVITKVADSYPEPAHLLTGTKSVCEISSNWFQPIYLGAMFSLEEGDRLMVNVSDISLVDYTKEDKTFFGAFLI
Outline: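 Biacore T100 SPR with captured mAb and soluble TL1A/Fhm analyte; ka and kd fitted to a 1:1 model assuming monomeric TL1A. KD = kd/ka; t1/2 (min) = ln2/(60·kd).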

[2] = target: T2, cynomolgus monkey TL1A, soluble, CHO-expressed, residues 72-251 of SEQ ID NO:248 with N-terminal His6-tag (cynomolgus monkey (Macaca fascicularis), UniProt O95150 72-251 (human entry)); assay: ELISA, blocks MfTL1A (50 pM) binding hDcR3-Fc
T2 construct: also called MfTL1A; MfTL1A (CHO)
T2 chain: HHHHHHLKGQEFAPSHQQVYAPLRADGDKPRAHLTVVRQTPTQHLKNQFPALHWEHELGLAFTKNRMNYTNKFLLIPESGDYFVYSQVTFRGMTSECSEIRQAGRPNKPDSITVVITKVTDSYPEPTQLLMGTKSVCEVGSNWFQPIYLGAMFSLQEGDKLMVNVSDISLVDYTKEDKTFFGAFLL
Method: (§1) The ability of antibodies to block human TL1A binding to its cognate receptors, the DR3 and DcR3 receptors, was measured using a competition sandwich ELISA. In addition, blocking of a human TL1A variant FHM (human TL1A Q167R) and the cynomolgus monkey (Macaca fascicularis) TL1A (MfTL1A) protein binding to the human DR3 or DcR3 receptors was measured in the same manner. Constant amounts of biotinylated human TL1A or FHM (both expressed with a 6-His tag in CHO cells) or biotinylated MfTL1A (expressed in CHO cells) were separately titrated with varying amounts of antibodies. The antibody-protein complexes were incubated in solution (1 hr, 25° C.) and then transferred to microtiter plates coated with human DR3 (hDR3) or human DcR3 (hDcR3) expressed as human IgG1 Fc fusion proteins. After one hour at 25° C. the wells were washed, and bound human or monkey TL1A was detected with streptavidin conjugated with horseradish peroxidase (HRP). Wells were developed with a TMB solution to produce a colorimetric reaction and quenched with aqueous sulfuric acid before reading absorbance at 450 nm on a Perkin-Elmer Victor X5 plate reader. A sigmoidal dose-response curve was fit to the data using the Prism™ data analysis package. […] Both fully human anti-hTL1A mAbs and comparator antibodies, i.e., control mAb1 (an anti-hTL1A antibody with heavy and light chain variable domains having the amino acid sequences corresponding to SEQ ID NOS:21 and 27, respectively, of US 2009/0280116) and control mAb3 (an anti-hTL1A antibody with heavy and light chain variable domains having the amino acid sequences corresponding to SEQ ID NOS:57 and 48, respectively, of US 2009/0280116), were included in the study. NB: No binding under the conditions tested; NT: Not tested. Concentrations of biotinylated soluble ligands: (1) 150 pM; (2) 500 pM; (3) 10 pM; and (4) 50 pM.

[3] = target: T3, human TL1A, soluble, CHO-expressed, residues 72-251 of SEQ ID NO:244 with N-terminal His6-tag (human, UniProt O95150 72-251); assay: ELISA, blocks hTL1A (150 pM) binding hDR3-Fc
T3 construct: also called hTL1A; hTL1A (CHO)
T3 sequence: T2 chain with L45F, V84I
Method: as §1

[4] = target: T4, full-length cynomolgus monkey TL1A expressed on HEK293 cells (cynomolgus monkey (Macaca fascicularis), UniProt O95150 1-251 (human entry)); assay: cell-based or functional assay
T4 chain: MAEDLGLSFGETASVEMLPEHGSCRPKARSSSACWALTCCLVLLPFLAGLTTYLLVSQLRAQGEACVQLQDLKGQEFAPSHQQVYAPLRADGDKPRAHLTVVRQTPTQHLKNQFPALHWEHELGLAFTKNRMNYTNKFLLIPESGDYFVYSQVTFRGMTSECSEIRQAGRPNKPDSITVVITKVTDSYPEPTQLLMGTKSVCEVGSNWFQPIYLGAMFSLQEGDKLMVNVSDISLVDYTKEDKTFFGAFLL

[5] = target: T5, full-length Fhm, human TL1A(Q167R), expressed on HEK293 cells (human, UniProt O95150 1-251); assay: cell-based or functional assay
T5 sequence: T4 chain with C34R, L69F, D71A, L110F, V149I, Q167R

[6] = target: T6, full length human TL1A expressed on HEK293 cells (human, UniProt O95150 1-251); assay: cell-based or functional assay
T6 sequence: T4 chain with C34R, L69F, D71A, L110F, V149I

B2: H4H1719P (antibody, human IgG4 S228P, V domains shown)
VH: EVQLVESGGGLVQPGRSLRLSCVASGFTFQDYAMHWVRQAPGKGLEWVSGINWISDDMGYADSVMGRFTISRDNAKNSLYLQMDSLRAEDTALYYCAKDKGLRFLDYVMDVWGQGTTVTVSA
VL: DIVMTQSPLSLPVTPGEPASISCRSTQSLLHRNGHNYLHWYLHKPGQSPQLLIHLGSNRASGVPDRFSGSGSGTDFTLKISRVEAEDVGVYYCMQALQTPYTFGQGTKLEIK
Kd [1]: 0.364 nM | t1/2 [1]: 38 min | IC50 [2]: 0.061 nM | IC50 [3]: 0.022 nM | IC50, reporter + 10,000 TL1A cells [4]: 3 nM | IC50, reporter + 10,000 TL1A cells [5]: 0.84 nM | IC50, reporter + 10,000 TL1A cells [6]: 0.82 nM

B3: H4H1818N (antibody, human IgG4 S228P, V domains shown)
VH: RLQLVESGGGLVKPGGSLKLSCAASGFTISDYYMSWIRQAPGKGLEWVSYIGGSGSTIYYADSVKGRFTISRDNAKNSLYLQMNSLRAEDTAVYYCAREDADSYYYYGMDVWGQGTTVTVSS
VL: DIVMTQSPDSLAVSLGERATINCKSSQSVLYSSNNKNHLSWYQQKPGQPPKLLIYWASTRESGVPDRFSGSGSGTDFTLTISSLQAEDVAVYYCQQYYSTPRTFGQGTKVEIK
notes: human IgG4(S108P) form of H2M1818N
Kd [1]: 0.088 nM | t1/2 [1]: 92 min | IC50 [2]: 1.1 nM | IC50 [3]: 0.119 nM | IC50, reporter + 10,000 TL1A cells [4]: 4.29 nM | IC50, reporter + 10,000 TL1A cells [5]: 1.42 nM | IC50, reporter + 10,000 TL1A cells [6]: 1.54 nM

B4: H4H1817N (antibody, human IgG4 S228P, V domains shown)
VH: QVQLQQWGAGLLKPSETLSLTCAVSGGSFSDYFWTWIRQPPGKGLEWIGEISHSGRTNYNPSLKSRVTISVDTSMSQFSLKMTSVTAADSAVYYCARDYPNWVFDYWGQGTLVTVSS
VL: EIELTQSPGTLSLSPGEGATLSCRASQSVFNSYLAWYQQKPGQAPRLLIYGASRRATGIPDRFSGSGSGTDFTLTISRLEPGDFAVYFCQQYGNSPLTFGGGTKVEIK
notes: human IgG4(S108P) form of H2M1817N
Kd [1]: 2.5 nM | t1/2 [1]: 25 min | IC50 [2]: 0.322 nM | IC50 [3]: 0.114 nM | IC50, reporter + 10,000 TL1A cells [4]: 5.04 nM | IC50, reporter + 10,000 TL1A cells [5]: 0.62 nM | IC50, reporter + 10,000 TL1A cells [6]: 1.11 nM

B6: H4H1750P (antibody, human IgG4 S228P, V domains shown)
VH: QVQLVESGGGVVQPGRSLRLSCVASGFTFSNYGMHWVRQAPGKGLEWVAVISYDGNNDLYSDSVKGRFTISRDNAKNALSLQMTSLRAEDTAVYYCARDSTMTPYYYHGIDVWGQGTTVTVSA
VL: DIQMTQSPSSLSASVGDRVTITCRASQDIRNDLGWYQQKPGKAPKRLIYAASSLQSGVPSRFSGSGSGTDFTLTISSLQPEDFATYYCLQHNSYPPTFGQGTKVEIK
binding result [1]: no binding (tested: up to 100 nM) | IC50 [3]: 0.341 nM | IC50, reporter + 10,000 TL1A cells [4]: 107 nM | IC50, reporter + 10,000 TL1A cells [5]: 29.5 nM | IC50, reporter + 10,000 TL1A cells [6]: 12.8 nM

B9: H4H1704N (antibody, human IgG4 S228P, V domains shown)
VH: EVQLVESGGGLVQPGGSLRLSCAVSGFTFSSYWMSWVRQAPGKGLEWVANIKEDGSEKNYVDSVKGRFTLSSDNAKNSLYLQMNSLRAEDTAVYYCAREDYDSYYKYGMDVWGQGTAVIVSS
VL: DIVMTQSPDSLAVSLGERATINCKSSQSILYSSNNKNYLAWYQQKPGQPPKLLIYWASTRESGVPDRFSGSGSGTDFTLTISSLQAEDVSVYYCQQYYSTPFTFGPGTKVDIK
notes: human IgG4(S108P) form of H2M1704N
Kd [1]: 0.404 nM | t1/2 [1]: 25 min | IC50 [2]: 0.11 nM | IC50 [3]: 0.03 nM | IC50, reporter + 10,000 TL1A cells [4]: 3.76 nM | IC50, reporter + 10,000 TL1A cells [5]: 1.58 nM | IC50, reporter + 10,000 TL1A cells [6]: 1.11 nM

The remaining lines, values ahead:

Kd [1]: 0.321 nM | t1/2 [1]: 43 min | IC50 [2]: 0.034 nM | IC50 [3]: 0.04 nM | IC50, reporter + 10,000 TL1A cells [4]: 2.23 nM | IC50, reporter + 10,000 TL1A cells [5]: 1.23 nM | IC50, reporter + 10,000 TL1A cells [6]: 0.56 nM
B1: H4H1804N (antibody, human IgG4 S228P, V domains shown)
VH: QVQLHQWGAGLLKPSETLSLTCAVSGVSFSDYHWAWIRQSPGKGLEWIGDINHRGRTNYNPSLKSRVTISLDTSGNPFSLKLTSVTAADTAVYYCARDFPNWVFDSWGQGILVTVSS
VL: EIVLSQSPGTLSLSPGERATLSCRASQSVSSSFLAWYQQYPGQAPRLLIYGASRRATGIPDRFRGSGSGTDFTLTISRLEPEDFAVYYCQQYGSSPLTFGGGTKVENK
notes: human IgG4(S108P) form of H2M1804N

binding result [1]: no binding (tested: up to 100 nM) | IC50 [2]: 0.056 nM | IC50 [3]: 0.104 nM | IC50, reporter + 10,000 TL1A cells [4]: 11.7 nM | IC50, reporter + 10,000 TL1A cells [5]: 138 nM | IC50, reporter + 10,000 TL1A cells [6]: 1.99 nM
B5: H4H1752P (antibody, human IgG4 S228P, V domains shown)
VH: EVQLVESGGGLVQPGGSLRLSCSASGFTFSKYVMTWVRQAPGKGLEWVSAIGPTGRTTEYADSVQGRFTISRDNSMNTVFLHLNSLTAEDTAEYYCAKMFDWNYDVYFDSWGQGTLVTVSS
VL: DIQMTQSPSILSASVGDRVTITCRTSQSISNWLAWYQQKPGKAPNLLIYKASSLESGVPSRFSGSGSGTEFTLTISSLQPDDFATYYCQQYYRYWTFGQGTKVEIK

binding result [1]: no binding (tested: up to 100 nM) | IC50 [2]: 0.093 nM | IC50 [3]: 0.06 nM | IC50, reporter + 10,000 TL1A cells [4]: 3.07 nM | IC50, reporter + 10,000 TL1A cells [6]: 0.66 nM
B7: H4H1681N (antibody, human IgG4 S228P, V domains shown)
VH: EVQLLESGGGLVQPGKSLRLSCAVSGFTFSTYGMNWVRQAPGKGLEWVSSISGTGRTTYHADSVQGRFTVSRDNSKNILYLQMNSLRADDTAVYFCTKERGDYYYGVFDYWGQGTLVTVSS
VL: DIQMTQSPSTLSASVGDRVTITCRASQTISSWLAWYQQTPEKAPKLLIYAASNLQSGVPSRFSGSGSGTEFTLTISSLQPDDFATYYCQQYHRSWTFGQGTKVEIT

binding result [1]: no binding (tested: up to 100 nM) | IC50 [2]: 0.313 nM | IC50 [3]: 0.014 nM | IC50, reporter + 10,000 TL1A cells [4]: 1.93 nM | IC50, reporter + 10,000 TL1A cells [5]: 54.1 nM | IC50, reporter + 10,000 TL1A cells [6]: 0.82 nM
B8: H4H1805N (antibody, human IgG4 S228P, V domains shown)
VH: QVQLQQWGAGLLKPSETLSLTCAVYGGSFTGFYWSWIRQPPGKGLEWIGEINHRGNTNYNPSLKSRVTMSVDTSKNQFSLNMISVTAADTAMYFCASPFYDFWSGSDYWGQGTLVTVSS
VL: DIMLTQTPLTSPVTLGQPASISCKSSQSLVHSDGNTYLSWLQQRPGQPPRLLFYKISNRFSGVPDRFSGSGAGTDFTLKISRVEAEDVGVYYCMQATQFPLTFGGGTKVEIK
notes: human IgG4(S108P) form of H2M1805N
